The values that follow come from PMC4057782, “tRNA synthetase counteracts c-Myc to develop functional vasculature”.

One data set addresses SerRS delta T413-V420 (Homo sapiens, UniProt P49591 1-514, del413-420). Kind of data set: EMSA; binding abolished; EMSA: 20 mM Tris-HCl pH 8.0, 60 mM KCl, 5 mM MgCl2, 0.1 mg/ml BSA, 10 ng/ul poly(dG-dC), 1 mM DTT, 30 min, room temperature; SPR: 10 mM HEPES pH 7.4, 150 mM NaCl, 0.005% P-20; footprint: 20 mM HEPES pH 7.9, 120 mM KCl, 8 mM MgCl2, 0.2 mM EDTA, 0.5 mM DTT, 0.2 mg/ml BSA, 10 ug/ml poly(dG-dC), 5% glycerol, room temperature. Particulars: protein: recombinant; chain copies: 2; label: 5' 32P.

The target in the next data set is SerRS delta V2-G14 (Homo sapiens, UniProt P49591 1-514, del2-14). The description is as above. The note with it: protein: recombinant; chain copies: 2; label: 5' 32P.
SerRS delta V2-G14, sequence (P49591 other isoform, or with tags, fused parts or gaps del2-14 | mutant): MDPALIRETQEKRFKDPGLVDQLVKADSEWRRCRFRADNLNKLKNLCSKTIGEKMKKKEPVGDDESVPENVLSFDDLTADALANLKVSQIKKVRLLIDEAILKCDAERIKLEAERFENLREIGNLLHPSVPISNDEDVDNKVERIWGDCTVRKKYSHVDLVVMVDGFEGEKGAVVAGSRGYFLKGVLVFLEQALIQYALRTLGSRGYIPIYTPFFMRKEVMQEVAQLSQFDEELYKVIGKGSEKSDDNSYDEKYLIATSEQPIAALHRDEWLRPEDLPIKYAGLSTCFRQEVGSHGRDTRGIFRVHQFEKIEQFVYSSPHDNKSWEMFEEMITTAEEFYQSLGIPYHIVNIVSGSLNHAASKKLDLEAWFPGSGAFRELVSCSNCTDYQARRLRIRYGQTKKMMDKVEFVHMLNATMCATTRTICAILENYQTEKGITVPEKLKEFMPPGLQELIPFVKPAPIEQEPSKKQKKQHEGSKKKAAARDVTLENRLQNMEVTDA

SerRS delta T413-V420, sequence (P49591 other isoform, or with tags, fused parts or gaps del413-420 | mutant): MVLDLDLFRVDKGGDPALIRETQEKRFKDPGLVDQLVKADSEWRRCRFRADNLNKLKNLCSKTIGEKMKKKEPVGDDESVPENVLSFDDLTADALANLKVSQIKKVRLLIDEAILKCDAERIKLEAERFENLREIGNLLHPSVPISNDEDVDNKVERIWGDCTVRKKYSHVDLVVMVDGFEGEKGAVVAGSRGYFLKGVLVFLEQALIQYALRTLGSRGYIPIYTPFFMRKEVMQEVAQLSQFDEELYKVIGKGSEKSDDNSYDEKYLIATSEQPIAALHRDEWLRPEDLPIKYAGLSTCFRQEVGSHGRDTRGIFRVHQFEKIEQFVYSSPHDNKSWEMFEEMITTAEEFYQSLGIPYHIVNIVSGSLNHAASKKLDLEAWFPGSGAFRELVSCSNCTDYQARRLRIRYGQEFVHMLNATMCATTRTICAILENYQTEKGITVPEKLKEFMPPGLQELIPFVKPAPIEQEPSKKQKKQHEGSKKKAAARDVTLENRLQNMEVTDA

B1: VEGFA promoter 27-bp (-62 to -36) (dsDNA)
DNA 1: GGCGGGGCGGAGCCATGCGCCCCCCCC
DNA 2: GGGGGGGGCGCATGGCTCCGCCCCGCC
For the molecule B1, the binding result in the data set with SerRS delta T413-V420 and in the data set with SerRS delta V2-G14 was “no binding” throughout.
